Results taken from publication PMC7578760.

How the values were obtained:
CIC-HMG = CIC-HMG (UniProt Q96RK0-2 188-288); test: ITC
CIC-HMG/C1 fusion [1] = target: T1, CIC-HMG/C1 fusion (UniProt Q96RK0-2 188-288+1401-1608, internal_change); test: ITC
CIC-HMG/C1 fusion [2] = target: T1, CIC-HMG/C1 fusion; test: EMSA

B1: DUSP6 site #4 (ITC) (dsDNA)
DNA 1: TTGGATTTCATTCACTGGGG
DNA 2: CCCCAGTGAATGAAATCCAA
binding result (CIC-HMG): no binding
binding result (CIC-HMG/C1 fusion [1]): binds

B2: DUSP6 site #5 (ITC) (dsDNA)
DNA 1: GGCAGCTTCATTGAGAGAGA
DNA 2: TCTCTCTCAATGAAGCTGCC
binding result (CIC-HMG/C1 fusion [1]): binds

B3: DUSP6 site #5 (EMSA) (dsDNA)
DNA 1: GGCAGCTTCATTGAGAGAGA
DNA 2: TCTCTCTCAATGAAGCTGCC
binding result (CIC-HMG/C1 fusion [2]): binds

B4: DUSP6 mutant site #4 (EMSA) (dsDNA)
DNA 1: TTGGATTTAGCTCACTGGGG
DNA 2: CCCCAGTGAGCTAAATCCAA
binding result (CIC-HMG/C1 fusion [2]): no binding

B5: DUSP6 site #6 (ITC) (dsDNA)
DNA 1: GAGAGATTCATTGACACTAA
DNA 2: TTAGTGTCAATGAATCTCTC
binding result (CIC-HMG/C1 fusion [1]): binds

B6: DUSP6 site #4 (EMSA) (dsDNA)
DNA 1: TTGGATTTCATTCACTGGGG
DNA 2: CCCCAGTGAATGAAATCCAA
binding result (CIC-HMG/C1 fusion [2]): binds

B7: DUSP6 site #6 (EMSA) (dsDNA)
DNA 1: GAGAGATTCATTGACACTAA
DNA 2: TTAGTGTCAATGAATCTCTC
binding result (CIC-HMG/C1 fusion [2]): binds
